{
  "source": "patent US20020147168",
  "assay_in_all_cases": "cell_activity",
  "key": {"[1]": {"tested_on": "nlsCre recombinase S2A (Bacteriophage P1)", "conditions": "pBS210 excision in Nicotiana plumbaginifolia protoplasts, 72 h; pBS210 alone 0"}, "[2]": {"tested_on": "nlsCre recombinase from intron-containing gene (inlscre) S2A (Bacteriophage P1)", "conditions": "pBS210 excision in Nicotiana plumbaginifolia protoplasts, 72 h; also in planta excision in tobacco from pBS229"}, "[3]": {"tested_on": "Cre recombinase S2A (Bacteriophage P1)", "conditions": "pBS210 excision in Nicotiana plumbaginifolia protoplasts, 72 h; pBS210 alone 0"}},
  "data": [
    {"substance": "loxP sites in direct repeat (pBS210, pBS229)", "values": [
      {"measurement": "activity (GUS units/25 ug protein)", "setting": "[1]", "result": 141},
      {"measurement": "activity (GUS units/25 ug protein)", "setting": "[2]", "result": 51},
      {"measurement": "activity (GUS units/25 ug protein)", "setting": "[3]", "result": 133}
    ]}
  ]
}
